Measured values: article PMC7891125 (Cell, 2021)

Biological target: T1, SARS-Cov2 Spike ectodomain for structural analysis (SARS-CoV-2 Wuhan-Hu-1 (MN908947), UniProt P0DTC2, RRAR > GSAS at residues 682-685 | KV > PP at residues 986-987)
T1 construct: also called trimeric spike
Assay: cryo-EM structure; spike (S ~0.6 μm) with Fab or IgG (1:6 molar ratio), applied to the grid almost immediately
Details: both partners purified

Binder	binding result	stoichiometry N
Strep-tagged Fab150 (Fab, V domains shown, source: HEK293T, transient transfection, purified (Strep-Tactin)) VH: QVQLVESGGGLIQPGGSLRLSCAASGVTVSSNYMSWVRQAPGKGLEWVSIIYSGGTTYYADSVKGRFTISRDSSMNTLYLQMNSLRAEDTAVYYCARDLMVYGIDVWGQGTTVTVSS VL: EIVMTQSPSSLSASVGDRVTITCRASQGISSYLAWYQQKPGKAPKLLIYAASTLQSGVPSRFSGSGSGTDFTLTISSLQPEDFATYYCQQLDSYPPGYTFGQGTKVDIK	binds	
Strep-tagged Fab 158 (Fab, V domains shown, also called Fab58 (as printed in the crystallization paragraph); source: HEK293T, transient transfection, purified (Strep-Tactin)) VH: EVQLLESGGDLIQPGGSLRLSCAASGVTVSSNYMSWVRQAPGKGLEWVSIIYPGGSTFYADSVKGRFTISRDNSKNTLYLQMHSLRAEDTAVYYCARDLGSGDMDVWGKGTTVTVSS VL: DIVMTQSPSFLSASVGDRVTITCRASQGISSYLAWYQQKPGKAPKLLIQAASTLQSGVPSRFSGSGSGTEFTLTISSLQPEDFATYYCQQLNSYRYTFGQGTKVEIK	binds	
Fab 253H165L (Fab, V domains shown, also called chimera 253H165L) VH: not shown VL: DIVMTQSPGTLSLSPGERATLSCRASQSVRSSYLAWYQQKPGQAPRLLIYGASRRGTGIPDRFSGSGSGTDFTLTISRLEPEDFAVYYCQQYGSSPWTFGQGTKVEIK	binds	
Strep-tagged Fab316 (Fab, V domains shown) VH: not shown VL: QAVLTQPPSASGSPGQSVTISCTGTSSDVGGYNYVSWYQQHPGKAPKLMIYEVSKRPSGVPDRFSGSKSGNTASLTVSGLQAEDEADYYCSSYAGSNHWVFGGGTKLTVL		3 Fabs/trimer
Strep-tagged Fab88 (Fab, V domains shown, source: HEK293T, transient transfection, purified (Strep-Tactin)) VH: QLQLQESGPGLVKPSQTLSLTCTVSGGSISSGSYNWTWIRQPAGKGLEWIGRIYNSGSTNYNPSLKSRVTISVDTSKNQLSLKVRSVTAADTAVYYCARHCSGGTCYPKYYYGMDVWGQGTTVTVSS VL: QSALTQPPSVSEAPRQRVTISCSGSSSNIGNNAVNWYQQFPGKAPKLLIYYDDLLPSGVSDRFSGSKSGTSASLAISGVQSEDEADYYCAAWDDSLNVVVFGGGTKLTVL		3 Fabs/trimer
